Reference: paper PMC2942843

Target: T1, CbbR (His6-CbbR) (Acidithiobacillus ferrooxidans ATCC 23270) (UniProt B7JB31)
T1 sequence: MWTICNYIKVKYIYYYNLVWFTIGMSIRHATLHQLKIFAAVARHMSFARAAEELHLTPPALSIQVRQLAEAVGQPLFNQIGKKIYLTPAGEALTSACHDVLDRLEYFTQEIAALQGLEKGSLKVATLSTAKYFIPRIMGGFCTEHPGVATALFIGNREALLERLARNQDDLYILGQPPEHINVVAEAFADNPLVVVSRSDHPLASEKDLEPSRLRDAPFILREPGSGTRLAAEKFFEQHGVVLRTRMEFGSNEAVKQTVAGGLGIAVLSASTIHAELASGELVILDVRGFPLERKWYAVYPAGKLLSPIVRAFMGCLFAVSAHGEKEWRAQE
Test: EMSA
Conditions: 12 mM HEPES-NaOH pH 7.9, 4 mM Tris-HCl pH 7.9, 1 mM EDTA, 60 mM KCl, 1 mM DTT, 10% glycerol, 5 ug/ul BSA, 2 ug/ul poly(dI-dC), 30 C, 15 min, 20 pmol DNA

Row | Sequence | binding
1 | ACGACGGCGGCAAGCACCGCCAACCACCGAACATCAGACGCGTAGTCACAAACCACCATCACATCAGTGATACGTTATTGAAAAAATAATAACTACTTATTAGCGCTTATGATTCACCCGCACTATAGTTCGATCATCGCTGCAGACGCAGCGATTGCGCCGGGGGCACCGGCGTCGGGCAACTGCATGGAGGTGGCATATGGCCGTCAAGACCTATAACGCGGGTGTGAAGGATTACCGG (double strand) [Pcbb2 (cbb2 operon promoter region)] | binds
2 | CATTGAACAGGGTCAGCTCCTGGCCATGGCGGGCGCGCAACACCTTGAGCAGATGATGGCTGGCACCTGCCGGCAGCAAAAAGGGGCCGCTTTCGGGCAGGTCGGAATCGGCGTATAAGTGAATGCGCGGCATAGGTTACGATATCGGGCAGGAGAACACAGGTGGGATTATATCATCGTGGCGCTGGCGCAGGTGGCGCATGATCAAAGACTCCGAT (double strand) [Pcbb3 (cbb3 operon promoter region)] | binds
3 | CGGCAGCGAAGATCTTGAGTTGGTGCAAGGTTGCATGACGGATAGACATGCCAATAGTAAACCATACTAAATTATAATAGTAAATATATTTTACTTTTATATAGTTACAGATCGTCCACAATGCTACCCAAGCATTGGAACCTGGCAGGTGGCTCCAATCACCATCGTCTACCATGACACAAGGAGAGCAAGCATGGCCGTAAAAAAGTATGAGGCCGGAG (double strand) [Pcbb1 (cbb1 operon promoter region)] | binds
4 | TTTGGGGTGGCAGCAAGAAGTCCTCCTTTCCGGTAGTTGGCCCGGCGCGCTCTTGAGGCCGCACATCCGCCCCGCTTGAGCCAATTTTGCCTTTGCGGTGAGCGGGTTTCACTTCGCTTGTGGCGCTTTCCTTTGATATAGTGCGCGCTGTCCCTGTCGCGCTGCGACAGGTCGGCCTAGCTATTGAGGAGCCCAGTGCATGTCCAAAAGTCATCTTTTCACCTCTGAATCCGTTTCC (double strand) [Pcbb4 (cbb4 operon promoter region)] | no binding
